Values quoted from earlier work in PMC4512752.
Read-outs that look alike come from different tables or passages of the source.

Key:
Assay in all cases: MALLS
[1] = biological target: Arrestin-1 (Homo sapiens) (UniProt P10523)
[2] = biological target: Arrestin-1 (Mus musculus) (UniProt P20443)
Arrestin-2 (Bos taurus) [3] = biological target: Arrestin-2 (Bos taurus) (UniProt P17870)
Arrestin-2 (Bos taurus) [4] = biological target: Arrestin-2 (Bos taurus) (UniProt P17870); remark: listed apart in the source
Arrestin-3 (Bos taurus) [5] = biological target: Arrestin-3 (Bos taurus) (UniProt P32120)
Arrestin-3 (Bos taurus) [6] = biological target: Arrestin-3 (Bos taurus) (UniProt P32120); remark: listed apart in the source

Arrestin-1 (from UniProt P10523)
Kd [1]: 2.95 µM

Arrestin-1 (from UniProt P20443)
Kd [2]: 57.5 µM

Arrestin-2 (from UniProt P17870)
Kd (Arrestin-2 (Bos taurus) [3]): 5.5 µM | Kd (Arrestin-2 (Bos taurus) [4]): 100 µM

Arrestin-3 (from UniProt P32120)
Kd (Arrestin-3 (Bos taurus) [5]): 7.8 µM | Kd (Arrestin-3 (Bos taurus) [6]): 100 µM
